Assay results as given in patent US20170369576A1.

Columns and labels:
[1] = biological target: HIV-1 envelope glycoprotein of isolate HXB2 (X4), on pseudotype virus (HIV-1 (HXB2)) (UniProt P04578); assay: cell-based or functional assay
[2] = biological target: HIV-1 envelope glycoprotein of isolate 92TH594 (R5/X4), on pseudotype virus (HIV-1 (92TH594)); assay: cell-based or functional assay
[3] = biological target: HIV-1 envelope glycoprotein of isolate JRCSF (R5), on pseudotype virus (HIV-1 (JRCSF)); assay: cell-based or functional assay
[4] = biological target: chimpanzee CD4 on PBMC (chimpanzee) (UniProt P16004); assay: FACS of chimp X282 PBMC, sequential staining: 1st Leu3a binding, 2nd B4 exposure
[5] = biological target: chimpanzee CD4 on PBMC (chimpanzee) (UniProt P16004); assay: FACS of chimp X301 PBMC, sequential staining: 1st Leu3a binding, 2nd B4 exposure
[6] = biological target: chimpanzee CD4 on PBMC (chimpanzee) (UniProt P16004); assay: FACS of chimp X282 PBMC, sequential staining: 1st B4 binding, 2nd Leu3a exposure; competitor B4 prebound
[7] = biological target: chimpanzee CD4 on PBMC (chimpanzee) (UniProt P16004); assay: FACS of chimp X301 PBMC, sequential staining: 1st B4 binding, 2nd Leu3a exposure; competitor B4 prebound
[8] = biological target: chimpanzee CD4 on PBMC (chimpanzee) (UniProt P16004); assay: FACS of chimp X301 PBMC stained with Leu3a-PE only
[9] = biological target: chimpanzee CD4 on PBMC (chimpanzee) (UniProt P16004); assay: FACS of chimp X282 PBMC stained with Leu3a-PE only

Chain of chimpanzee CD4 on PBMC (chimpanzee) (P16004 26-458): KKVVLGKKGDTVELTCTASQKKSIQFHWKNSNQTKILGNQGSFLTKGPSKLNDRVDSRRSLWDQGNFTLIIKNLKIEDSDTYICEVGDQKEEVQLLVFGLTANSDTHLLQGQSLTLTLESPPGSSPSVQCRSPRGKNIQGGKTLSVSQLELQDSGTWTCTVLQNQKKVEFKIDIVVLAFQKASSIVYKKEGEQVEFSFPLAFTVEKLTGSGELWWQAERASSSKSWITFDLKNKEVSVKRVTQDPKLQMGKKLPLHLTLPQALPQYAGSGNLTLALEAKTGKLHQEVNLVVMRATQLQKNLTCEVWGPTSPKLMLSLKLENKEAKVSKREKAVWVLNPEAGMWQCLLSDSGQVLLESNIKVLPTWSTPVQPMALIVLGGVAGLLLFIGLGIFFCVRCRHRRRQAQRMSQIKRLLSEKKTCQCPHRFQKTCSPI

Row | percent positive PBMC (Leu3a+ B4-) [4] | percent positive PBMC (Leu3a+ B4-) [5] | percent positive PBMC (Leu3a+ B4+) [6] | percent positive PBMC (Leu3a+ B4-) [6] | percent positive PBMC (Leu3a+ B4+) [7] | percent positive PBMC (Leu3a+ B4-) [7] | percent positive PBMC (single label control, Leu3a+) [8] | percent positive PBMC (single label control, Leu3a+) [9] | Substance | IC50 of HIV entry inhibition, pseudotype virus HXB2 (X4), U87-CD4+/CCR5+/CXCR4+ cells [1] | IC50 of HIV entry inhibition, pseudotype virus 92TH594 (R5/X4), U87-CD4+/CCR5+/CXCR4+ cells [2] | IC50 of HIV entry inhibition, pseudotype virus JRCSF (R5), U87-CD4+/CCR5+/CXCR4+ cells [3]
1 |  |  |  |  |  |  |  |  | monoclonal neutralizing antibody 2G12 | 0.5 µg/mL | 1.3 µg/mL | 0.8 µg/mL
2 |  |  |  |  |  |  |  |  | monoclonal neutralizing antibody 2F5 | 0.07 µg/mL | 3 µg/mL | 4 µg/mL
3 | 0.1% | 0.3% | 1.2% | 0% | 3% | 0% | 44% | 25.5% | anti-CD4 monoclonal antibody Leu3a |  |  | 
